Experimental data taken from paper PMC9156758, “Cryo-EM structures of human A2ML1 elucidate the protease-inhibitory mechanism of the A2M family” (Nature Communications, 2022).

What was measured:
Assay in all cases: cell-based or functional assay
[1] = target: T1, Human neutrophil elastase (HNE) (human, UniProt P08246 30-267)
T1 sequence (looked up): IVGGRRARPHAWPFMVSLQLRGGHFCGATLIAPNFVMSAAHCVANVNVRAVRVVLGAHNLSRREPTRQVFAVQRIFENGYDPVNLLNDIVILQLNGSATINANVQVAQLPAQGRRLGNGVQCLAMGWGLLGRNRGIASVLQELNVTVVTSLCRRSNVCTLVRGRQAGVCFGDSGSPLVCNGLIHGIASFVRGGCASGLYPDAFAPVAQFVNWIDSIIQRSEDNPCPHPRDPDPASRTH

[2] = target: T2, Thermolysin from Geobacillus stearothermophilus (Geobacillus stearothermophilus, UniProt P00800 233-548)
T2 sequence (looked up): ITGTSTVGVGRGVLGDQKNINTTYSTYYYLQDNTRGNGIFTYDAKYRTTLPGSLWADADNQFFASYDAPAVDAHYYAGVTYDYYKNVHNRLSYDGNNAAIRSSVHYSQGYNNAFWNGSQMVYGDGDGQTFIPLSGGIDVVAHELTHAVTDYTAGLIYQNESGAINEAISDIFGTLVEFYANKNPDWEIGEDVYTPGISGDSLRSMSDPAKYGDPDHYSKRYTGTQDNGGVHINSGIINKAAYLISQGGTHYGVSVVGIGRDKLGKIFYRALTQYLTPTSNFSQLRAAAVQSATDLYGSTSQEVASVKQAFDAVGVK

[3] = target: Bovine pancreatic α-chymotrypsin (bovine)

B1: Human alpha-2 macroglobulin-like 1 (A2ML1), recombinant wild type, native (natural protein, UniProt A8K2U0 18-1454, looked up)
chain: EELPNYLVTLPARLNFPSVQKVCLDLSPGYSDVKFTVTLETKDKTQKLLEYSGLKKRHLHCISFLVPPPAGGTEEVATIRVSGVGNNISFEEKKKVLIQRQGNGTFVQTDKPLYTPGQQVYFRIVTMDSNFVPVNDKYSMVELQDPNSNRIAQWLEVVPEQGIVDLSFQLAPEAMLGTYTVAVAEGKTFGTFSVEEYVLPKFKVEVVEPKELSTVQESFLVKICCRYTYGKPMLGAVQVSVCQKANTYWYREVEREQLPDKCRNLSGQTDKTGCFSAPVDMATFDLIGYAYSHQINIVATVVEEGTGVEANATQNIYISPQMGSMTFEDTSNFYHPNFPFSGKIRVRGHDDSFLKNHLVFLVIYGTNGTFNQTLVTDNNGLAPFTLETSGWNGTDVSLEGKFQMEDLVYNPEQVPRYYQNAYLHLRPFYSTTRSFLGIHRLNGPLKCGQPQEVLVDYYIDPADASPDQEISFSYYLIGKGSLVMEGQKHLNSKKKGLKASFSLSLTFTSRLAPDPSLVIYAIFPSGGVVADKIQFSVEMCFDNQVSLGFSPSQQLPGAEVELQLQAAPGSLCALRAVDESVLLLRPDRELSNRSVYGMFPFWYGHYPYQVAEYDQCPVSGPWDFPQPLIDPMPQGHSSQRSIIWRPSFSEGTDLFSFFRDVGLKILSNAKIKKPVDCSHRSPEYSTAMGAGGGHPEAFESSTPLHQAEDSQVRQYFPETWLWDLFPIGNSGKEAVHVTVPDAITEWKAMSFCTSQSRGFGLSPTVGLTAFKPFFVDLTLPYSVVRGESFRLTATIFNYLKDCIRVQTDLAKSHEYQLESWADSQTSSCLCADDAKTHHWNITAVKLGHINFTISTKILDSNEPCGGQKGFVPQKGRSDTLIKPVLVKPEGVLVEKTHSSLLCPKGKVASESVSLELPVDIVPDSTKAYVTVLGDIMGTALQNLDGLVQMPSGCGEQNMVLFAPIIYVLQYLEKAGLLTEEIRSRAVGFLEIGYQKELMYKHSNGSYSAFGERDGNGNTWLTAFVTKCFGQAQKFIFIDPKNIQDALKWMAGNQLPSGCYANVGNLLHTAMKGGVDDEVSLTAYVTAALLEMGKDVDDPMVSQGLRCLKNSATSTTNLYTQALLAYIFSLAGEMDIRNILLKQLDQQAIISGESIYWSQKPTPSSNASPWSEPAAVDVELTAYALLAQLTKPSLTQKEIAKATSIVAWLAKQHNAYGGFSSTQDTVVALQALAKYATTAYMPSEEINLVVKSTENFQRTFNIQSVNRLVFQQDTLPNVPGMYTLEASGQGCVYVQTVLRYNILPPTNMKTFSLSVEIGKARCEQPTSPRSLTLTIHTSYVGSRSSSNMAIVEVKMLSGFSPMEGTNQLLLQQPLVKKVEFGTDTLNIYLDELIKNTQTYTFTISQSVLVTNLKPATIKVYDYYLPDEQATIQYSDPCE
modifications: internal thioester Cys970-Gln973; N-glycans (Asn120, Asn328, Asn857 named)
In the case of B1, the “inhibition of β-casein-cleaving activity at a 4:1 A2ML1:protease molar ratio” value [1] is reported as roughly 10 % inhibited, the “inhibition of thermolysin's β-casein-cleaving activity, A2ML1:thermolysin molar ratios up to 4:1, without BAPN” value [2] is reported as roughly 95 % inhibited and the “inhibition of β-casein-cleaving activity at a 4:1 A2ML1:protease molar ratio” value [3] is reported as roughly 65 % inhibited.
